Target: alpha-subunit of the stimulatory G protein (Gs), mouse (mouse, UniProt P63094)
Assay: cell-based or functional assay

B1: Cholera toxin from Vibrio Cholerae (other)
chain: NDDKLYRADSRPPDEIKQSGGLMPRGQSEYFDRGTQMNINLYDHARGTQTGFVRHDDGYVSTSISLRSAHLVGQTILSGHSTYYIYVIATAPNMFNVNDVLGAYSPHPDEQEVSALGGIPYSQIYGWYRVHFGVLDEQLHRNRGYRDRYYSNLDIAPAADGYGLAGFPPEHRAWREEPWIHHAPPGCGNAPRSSMSNTCDEKTQSLGVKFLDEYQSKVKRQIFSGYQSDIDTHNRIKDEL
cAMP, fold induction over vehicle, adult mouse neural stem cells: 3.1 fold induction

Reference: patent publication US20050009847A1, “Compounds and methods for increasing neurogenesis” (published 2005)
